Source: EP1664122B1 (Novartis AG, dated 2010)

Experiments:
[1] = target: human CD45 on the human T cell line PEER (human) (UniProt P08575); assay: FACS competition with FITC-conjugated mA6 on PEER cells; curve fit assuming divalent antibody binding
[2] = target: T1, cynomolgus monkey CD45 on the T cell line HSC-F (cynomolgus monkey, UniProt A0A2K5VQ76 26-1301); assay: FACS competition with FITC-conjugated mA6 on HSC-F cells; curve fit assuming divalent antibody binding
T1 construct: whole, on cells; also called cynomolgus HSC-F cell target
T1 sequence: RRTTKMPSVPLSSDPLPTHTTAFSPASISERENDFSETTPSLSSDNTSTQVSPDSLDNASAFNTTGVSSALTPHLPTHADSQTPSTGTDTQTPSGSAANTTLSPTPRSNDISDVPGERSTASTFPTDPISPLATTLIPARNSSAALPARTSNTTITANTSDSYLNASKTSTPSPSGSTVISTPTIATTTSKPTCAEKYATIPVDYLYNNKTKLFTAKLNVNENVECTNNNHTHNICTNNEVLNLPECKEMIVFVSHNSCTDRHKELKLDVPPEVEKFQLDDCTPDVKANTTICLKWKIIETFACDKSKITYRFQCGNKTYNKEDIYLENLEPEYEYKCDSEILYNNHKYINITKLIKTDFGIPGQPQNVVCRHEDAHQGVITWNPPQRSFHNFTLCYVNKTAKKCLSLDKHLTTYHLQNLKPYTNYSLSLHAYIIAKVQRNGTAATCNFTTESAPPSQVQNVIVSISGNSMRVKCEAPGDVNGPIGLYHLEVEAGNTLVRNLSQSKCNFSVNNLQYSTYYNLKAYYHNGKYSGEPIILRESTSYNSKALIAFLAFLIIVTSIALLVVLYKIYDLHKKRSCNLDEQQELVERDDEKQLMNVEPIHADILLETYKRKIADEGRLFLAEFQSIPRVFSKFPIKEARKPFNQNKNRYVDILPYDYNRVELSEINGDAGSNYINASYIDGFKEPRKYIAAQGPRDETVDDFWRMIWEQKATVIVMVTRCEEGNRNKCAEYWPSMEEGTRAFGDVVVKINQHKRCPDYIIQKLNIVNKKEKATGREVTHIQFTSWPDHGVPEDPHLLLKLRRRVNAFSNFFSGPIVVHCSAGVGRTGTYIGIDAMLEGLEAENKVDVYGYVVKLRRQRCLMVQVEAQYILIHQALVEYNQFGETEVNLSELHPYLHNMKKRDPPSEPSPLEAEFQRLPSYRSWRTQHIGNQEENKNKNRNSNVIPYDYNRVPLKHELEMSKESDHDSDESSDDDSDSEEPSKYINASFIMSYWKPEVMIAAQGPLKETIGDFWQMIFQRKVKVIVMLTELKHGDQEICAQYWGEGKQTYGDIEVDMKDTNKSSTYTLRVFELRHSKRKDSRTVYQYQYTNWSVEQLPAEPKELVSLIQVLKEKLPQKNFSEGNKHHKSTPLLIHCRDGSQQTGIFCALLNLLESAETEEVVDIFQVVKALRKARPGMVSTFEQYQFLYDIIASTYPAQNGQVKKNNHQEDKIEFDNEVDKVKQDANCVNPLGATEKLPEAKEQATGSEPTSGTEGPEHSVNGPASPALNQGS

B1: humanised antibody VHE-N73D/humV1 (antibody, V domains shown)
VH: EVQLVESGAEVKKPGASVKVSCKASGYTFTNYIIHWVKQEPGQGLEWIGYFNPYNHGTKYNEKFKGRATLTADKSISTAYMELSSLRSEDTAVYYCARSGPYAWFDTWGQGTTVTVSS
VL: DILLTQSPATLSLSPGERATLSCRASQNIGTSIQWYQQKPGQAPRLLIRSSSESISGIPSRFSGSGSGTDFTLTISSLEPEDFAVYYCQQSNTWPFTFGQGTKLEIK
notes: Constant parts are human gamma-1 and human kappa; expressed in Sp2/0 cells; also called VHEN73D/VL1; VHEN73D/VLh
Kd [1]: 2.44 nM
Kd [2]: 1.67 nM
